In experiment [1] the target is T1, JCV VP1 VLP (JC virus (JCV), Mad-1 strain, UniProt P03089 1-354).
T1 construct: also called JCV VP1 VLPs; JCV VP1 (coating with reassociation buffer)
As to the kind of experiment: direct ELISA, plate coated with antigen at 5 µg/ml in reassociation buffer (VLP); EC50 by non-linear regression (GraphPad Prism).

Experiment [2] addresses T2, BSA (Sigma-Aldrich) (bovine, UniProt P02769 25-607).
T2 construct: also called bovine serum albumin
The experiment in a line: direct ELISA.

Experiment [3] concerns the target T3, VP1 GCN (N74S R75K T128A L158V K345R Q350deletion T351deletion) (JC virus (JCV), UniProt P03089 1-354).
T3 construct: whole, on cells
The experiment in a line: flow cytometry, transfected 293TT cells.

Experiment [4] concerns the target T1, JCV VP1 VLP. The experiment in a line: direct ELISA.
Experiment [5] concerns the target JCV (JC virus produced by infected SVG-A cells) (JC virus (JCV), UniProt P03089 1-354). As to the kind of experiment: cell-based or functional assay.
Experiment [6] has as its target T1, JCV VP1 VLP. The experiment in a line: direct ELISA, plate coated with antigen at 5 µg/ml in reassociation buffer (VLP); EC50 by non-linear regression (GraphPad Prism). The source holds these as a separate data set.
Experiment [7] concerns the target T4, JCV VP3 protein (Bioclone Inc) (JC virus (JCV), UniProt P03095 120-344).
T4 sequence: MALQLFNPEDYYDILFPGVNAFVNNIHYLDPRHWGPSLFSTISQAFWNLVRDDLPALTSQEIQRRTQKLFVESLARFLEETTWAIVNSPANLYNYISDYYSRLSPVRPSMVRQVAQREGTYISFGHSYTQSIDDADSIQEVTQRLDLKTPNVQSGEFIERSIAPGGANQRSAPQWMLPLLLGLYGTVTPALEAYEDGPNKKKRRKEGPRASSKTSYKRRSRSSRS
As to the kind of experiment: direct ELISA, antigens coated at 1 µg/mL; bar groups labelled 100 nM, 20 nM, 4 nM, 0.8 nM.

In experiment [8] the target is T5, JCV VP2 protein (Bioclone Inc) (JC virus (JCV), UniProt P03095 1-344).
T5 sequence (looked up): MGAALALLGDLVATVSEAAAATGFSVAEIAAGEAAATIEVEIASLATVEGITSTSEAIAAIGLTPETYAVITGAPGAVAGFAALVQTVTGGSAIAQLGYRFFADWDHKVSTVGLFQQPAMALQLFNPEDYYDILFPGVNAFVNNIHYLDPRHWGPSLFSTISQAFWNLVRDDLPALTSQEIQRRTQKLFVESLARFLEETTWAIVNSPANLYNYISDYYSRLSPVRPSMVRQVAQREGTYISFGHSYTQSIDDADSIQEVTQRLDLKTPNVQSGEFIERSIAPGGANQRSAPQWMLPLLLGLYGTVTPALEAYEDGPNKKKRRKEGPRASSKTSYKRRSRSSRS
The experiment is described as above.

T2 sequence (P02769 25-607 limits assumed): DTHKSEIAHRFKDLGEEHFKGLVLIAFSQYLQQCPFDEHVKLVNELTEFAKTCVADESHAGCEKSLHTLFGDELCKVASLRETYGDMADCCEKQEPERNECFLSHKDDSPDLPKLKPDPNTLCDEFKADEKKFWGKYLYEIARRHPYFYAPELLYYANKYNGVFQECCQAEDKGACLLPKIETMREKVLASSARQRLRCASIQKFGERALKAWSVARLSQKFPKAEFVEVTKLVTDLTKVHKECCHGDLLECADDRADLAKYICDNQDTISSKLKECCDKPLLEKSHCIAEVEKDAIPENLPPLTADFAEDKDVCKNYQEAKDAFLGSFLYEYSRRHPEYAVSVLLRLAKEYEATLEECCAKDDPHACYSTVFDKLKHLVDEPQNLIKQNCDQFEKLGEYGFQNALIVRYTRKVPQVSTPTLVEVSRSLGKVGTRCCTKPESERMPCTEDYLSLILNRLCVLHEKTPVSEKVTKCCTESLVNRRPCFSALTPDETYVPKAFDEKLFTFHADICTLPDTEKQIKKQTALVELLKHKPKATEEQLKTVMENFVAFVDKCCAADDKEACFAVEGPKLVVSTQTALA

B1: NI-307.18F4A (antibody, V domains shown)
VH: EVQLVESGGGLVKPGGSLRLSCAASGFTFTNYYMTWVRQAPGKGLEWVSYITGGGSTTYYADSVTGRFTISRDNAKNSLYLQMSSLRVEDTAVYYCARGRGYPDNWFDPWGQGTLVTVSS
VL: SYVLTQPPSVSVSPGQTARITCSGDALPKQYVYWYQQKPGQAPVLMIYKDAERPSGIPDRFSGSSSGTTVTLTISGVQAEDEADYYCQSTDISGAAVVFGGGTKLTVL
Take B1: in experiment [1], the EC50 stood at 55 nM. Further, in experiment [2], the binding result was “no binding”.

B2: NI-307.58C7 (antibody, V domains shown)
VH: EVQLVESGGGLVKPGGSLRLSCAASGFTFSDYYVNWIRQAPGKGLEWVACISSSGRTIHYADSVKGRFTISRDNAKNSLYLQMNSLRAEDTAFYYCARDLDKAATGRPYFDYWGQGTLVTVSS
VL: not shown
For B2, in experiment [3], the binding result was “binds”.

B3: NI-307.78C3 (antibody, V domains shown)
VH: QVQLQESGPGLVKPSGTLSLTCTVSGGSISGRIWWSWVRQPPGKGLEWIGEIYHSGSTNYSPSLRGRVTISVDTSKQHFSLKMTSVTAADTAMYYCVRGELALGFDSWGQGTLVTVSS
VL: QSALTQPPSASGSPGQSVTISCTGTSSDVGGYNSVSWYQQHPRRAPKLMIYEVSKRPSGVPDRFSGSKSGNTASLTVSGLQADDEAHYYCSSYAGSNNLVFGGGTMLTVL
In the case of B3, in experiment [4], the response was half-maximal at 0.932 nM (EC50). Also, the binding result in experiment [2] is “no binding”.

B4: NI-307.24C6 (antibody, V domains shown)
VH: QLQLQESGPGLVKPSGTLSLICVVSGSSIRSNIWWWNWVRQSPGKGLEWIGEIYHSGSTNYSPSLKSRVTMSVDNSKNQFSLKMSSVTAADTAVYFCAINTRTSISGVLYDTFDVWGQGTMVTVSS
VL: EIVLTQSPATLSLSSGERATLSCRASQSVSGYLAWYQQKPGQAPRLLIYDGSNRATGIPARFSGSGSGTDFTLTISSLEPEDFAVYYCQHRSNWPMYTFGQGTKLEIK
B4 returned an EC50 in experiment [4] of 2.84 nM. In addition, in experiment [2], the binding result is on record as “no binding”.

B5: NI-307.44F6B (antibody, V domains shown)
VH: EVQLVESGGSVVRPGGSLRLACEVSGLRFDDFAMSWVRQVPGKGLEWIAGIFWNSGGTLYADSVKGRFTISRDNAENSLYLQMNSLRAEDTALYRCVRGRSHAAYYGMDVWGKGTTVTVSS
VL: EIVLTQSPLSLPVTPGEPASISCRSSQSLLHSNGYNYLDWYLQKPGQSPQLLIYLGSNRASGVPDRFSGSGSGTDFTLTISRVEAEDVGIYYCMQALQNALAFGGGTKLEIK
For B5, the EC50 in experiment [4] turned out to be 0.083 nM. Moreover, in experiment [2], the binding result is given as “no binding”.

B6: NI-307.98D3 (antibody, V domains shown)
VH: EVQLVESGGGVVQPGRSLRLSCAASGFTFSSSAMHWVRQAPGKGLEWVAVISYDGNNQLYADSVKGRLTISRDNSKNALYLQLNSLRTEDTAVYFCARDGGGYSFGTYFFDFWGQGTLVTVSS
VL: DIQMTQSPSSLSASVGERVTITCRASQRISNYLNWYQQKPGKAPKLLIYAASTLQSGVPSRFSGSGSGTDFTLTISSLQPEDFATYYCQQSYSSPPTFGPGTKVDIK
As for B6, the “IC50 of neutralization of the JCV infection of SVG-A cells” value in experiment [5] came to 0.8 ng/mL. In experiment [6], a half-maximal response (EC50) required 0.00057 nM.

B7: NI-307.61D11 (antibody, V domains shown)
VH: EVQLVQSGAEVKKPGASVKVSCKTSGYTFIGHYMQWVRQVPGQGFEWMGWINPNTGTTKYALKFKDRVTVTRDTSTATVYMEFHGLTSDDTAVYYCARASAYQLANYDYWGQGTLVTVSS
VL: QSALTQPASVSGSPGQSITISCAGTSNDVGDDDFVSWYQHQPGKAPRLMIYEVTNRPSGVSTRFSGSKSGNTASLTISGLQAEDEGDYYCMSYTKNSALGYVFGGGTKVTVL
Regarding B7, it took 17.7 nM to reach a half-maximal effect in experiment [1] (EC50). In addition, the binding result in experiment [2] is on record as “no binding”.

B8: NI-307.5H3 (antibody, V domains shown)
VH: QVQLQESGPGLLKPLGTLSLICDVSGDSISSSNWWSWVRQSPRKGLEWIGEIYHSGRTNYNPSLTNRVTISVDKSKNQFSLNLNSVTAADTGVYYCARWDYYYNNDYYIRGFDIWGQGTMVTVSS
VL: EIVLTQSPGILSLSPGERATLSCRASQSVDSNYLAWYQQKPGQAPRLLIYSTSTRAAGVPDRFSGSGSGTDFALTISGLEPEDFAVYYCQQWGGSPPITFGQGTRLEIK
Consider B8, for which, in experiment [4], the EC50 was 1.16 nM. In experiment [2], the binding result is “no binding”.

B9: NI-307.19F8 (antibody, V domains shown)
VH: EVQLVESGGGLVKPGGSLRLSCAASGFTFSSYYMNWVRQAPGKGLEWVSSISSSSSYIYYADSVKGRFTISRDNAKNSLYLQMNSLTAEDTAVYYCARDPRLQLWFMFDYWGQGTLVTVSS
VL: QPVLTQPPSASASLGASVTLTCTLSSGYSNYKVDWYQQRPGEGPRFVMRVGTGGIVGSKGDGIPDRFSVLGSGLNRYLTIKDIQEEDESDYHCGADHGSGSNFVYVFGTGTKVTVL
Turning to B9, the concentration for a half-maximal effect (EC50) in experiment [1] stood at 6.68 nM. Moreover, the figures for the binding result in experiment [2], in experiment [7] and in experiment [8] were “no binding”, “no binding (tested: 100 nM)” and “no binding (tested: 100 nM)”, respectively.

B10: NI-307.19F10 (antibody, V domains shown)
VH: EVQLVESGGGLVQPGGSVSLSCAASGFTFPVYWMHWVRQAPEKGLMWVSRISPDGTIVDYAGSVKGRFTVSRDNAKNILYLQIQRLTAEDTAVYFCTKDFDVASGFWGQGTLVTVSS
VL: QSALTQPPSASGSPGQSVTISCTGSKSDVGTCHFVSWYQQHPGKVPKLVIYEGNKRPSGVPDRFSASKSGNTASLTISGLQPGDEADYYCSTCAGPNNYVFGTGTKVTVL
Regarding B10, in experiment [4], a half-maximal effect (EC50) was put at 3.41 nM. The binding result in experiment [2] is recorded as “no binding”.

B11: NI-307.18E12 (antibody, V domains shown)
VH: QVQLQQWGAGLLKPSETLSLTCAVYGDSFSGFFWAWIRQTPGTGLEWIGEIQHGGSPTYNPSFESRLTISTDASKSQVSLKMTSVTVTDTAIYYCARCIRGKYGSGSLQLWSQGTLVTVSS
VL: DIQLTQSPSFLSASVGDRVTITCRASQDINYHLAWYRQKPGKAPDLLIHSAHTLHIGVSSRFSGSGSGTEFTLTIHTLQPEDFATYYCHQPKTFPPTFGGGTKVDIK
For B11, a half-maximal effect in experiment [1] (EC50) was put at 19.9 nM. Moreover, the binding result in experiment [2] is on record as “no binding”.

B12: NI-307.43A11 (antibody, V domains shown)
VH: QVQLQESGPGLVKPSGTLSLTCAVTGGSISSSNWWSWVRQSPGKGLEWIGEIHHDGNLNYNPLLKSRVSMSLDRSKNQFSLKLTSVTAADTAVYYCARWDFFFDSSYYIRGFDLWGQGTMVTVSS
VL: ETTLTQSPGTLSLSPGERVTLSCRASQSVDRNYLAWYQQKPGQSPRLLIYSASRRATGIPDRFSGSGSGTDFTLTISRLEPEDFVVYYCQQYGGSPPITFGQGTRLEIK
B12 gave an EC50 in experiment [4] of 6.15 nM. In addition, in experiment [2], the binding result is on record as “no binding”.

B13: NI-307.26E10 (antibody, V domains shown)
VH: EVQLVESGGGLVLPGGSLRLSCAVSGFTVRNEYMRWARQAPGRGLEWVSVIYRDGQTHHADTVKGRFDVSKDTSKNTMYLQMHNLRVDDTAIYYCARGHYGPWGQGTLVTVSS
VL: DIQMTQSPSTLPASVGDRVTITCRASQSINNWLAWYQQKPGKAPNLLIYDASNLETGVPSRFSGSGSGTEFTLTISSLQPDDFATYYCQQYNSHSHTWTFGQGTKVEIK
B13: the EC50 in experiment [4] came out at 14.9 nM. For the same molecule, the binding result is “no binding” in experiment [2], “no binding (tested: 100 nM)” in experiment [7] and “no binding (tested: 100 nM)” in experiment [8].

B14: NI-307.57D5 (antibody, V domains shown)
VH: EVQLVESGGGLAQPGGSLRLSCAGSGFTLSDFAMSWVRRAPGKGLEWVSSLTPSGRNSFYSDSVKGRFTISRDNWKNTLYLEMNLLRPEDTAVYYCARPGAPKNSDSKYSYVRVDFQHWGQGTLVTVSS
VL: NFMLTQPHSVSESPGRTVTISCTRSSGSIANNFVQWYQHRPGSAPTTLIYEDDQRPSGVPDRFSGSVDSFSNSASLTISGLKTEDEADYFCQSYDNHNWVFGGGTTLTVL
Consider B14, for which the EC50 in experiment [4] came out at 57 nM. In addition, in experiment [2], the binding result is listed as “no binding”.

B15: NI-307.25G10 (antibody, V domains shown)
VH: EVQLVESGGGLVQPGGSLRLSCVASGIIFKDYDFHWVRQVKEKGLEWVSAIGTAGDPYYAASVKGRFTVSRENGKNSVYLRMNNVGAGDTALYYCTSGNYFDRGSFRPSAFDMWGQGTMVTVSS
VL: EIVLTQSPGTLSLSPGERATLSCWASQSVSSNYLAWYQHKPGQAPRLLIFRASRRATDIPERFSAGGSGTDFTLTISRLEAEDSAVYYCQEYGSAPPASITFGQGTRLEIK
As to B15, a half-maximal response in experiment [4] (EC50) required 0.509 nM. Besides, the binding result in experiment [2] is recorded as “no binding”; in experiment [7], “no binding (tested: 100 nM)”; in experiment [8] it was “no binding (tested: 100 nM)”.

(Values after patent US20160052996A1 (NEURIMMUNE, published 2016).)
